From publication PMC6430086

What was measured:
[1] = target: HIV-1 envelope glycoprotein gp120 (HIV-1) (UniProt P04578)
[2] = target: HIV-1 envelope glycoprotein gp41 (HIV-1) (UniProt P04578)

Substance	EC50 to inhibit giant cell (syncytium) formation in SupT1 + HUT-78/HIV-1 co-cultures (fusion by gp120/gp41-CD4 interaction) [1]	EC50 to inhibit giant cell (syncytium) formation in SupT1 + HUT-78/HIV-1 co-cultures (fusion by gp120/gp41-CD4 interaction) [2]
Canavalia maritima lectin (natural protein)	75 nM	75 nM
Dioclea lasiocarpa lectin (natural protein)	46 nM	46 nM
Dioclea sclerocarpa lectin (natural protein)	63 nM	63 nM
Canavalia brasiliensis lectin (from UniProt P55915 1-237) (natural protein)	75 nM	75 nM
